“And” between values parts separate entries of the source, which are not always exact repeats. Equal entries are not always repeated.
Experiments:
Settings in all cases: both partners purified
[1] = biological target: HLA-A*02:01 with peptide … (human | , biotin on the Avi-tag (BirA ligase)); test: SPR; BIAcore T200, CM5 chip with streptavidin; biotinylated pMHCI, MR1 or CD1 captured; serial dilution of CD8-Fc fusion injected; 25°C, PBS with 0.005% Tween 20; steady-state responses, 1:1 Langmuir fit
[2] = biological target: T1, MHCI-related protein 1 (MR1) with β2m, loaded with 5-formyl salicylic acid (human, UniProt Q95460 23-302; P61769 21-119, biotin on the Avi-tag (BirA ligase)); test: as above
T1 construct: MR1 heavy chain, human; beta-2 microglobulin; Small-molecule cargo: 5-formyl salicylic acid; Same protein chains as Dm11 and Dm12; they differ in the cargo only; also called MR1-5FSA; not shown: Avi-tag, C-terminal, kept

[3] = biological target: HLA-A*01:01 with peptide … (human | , biotin on the Avi-tag (BirA ligase)); test: as above
[4] = biological target: HLA-A*02:01 with peptide … (human | , biotin on the Avi-tag (BirA ligase)); test: as above; remark: listed apart in the source
[5] = biological target: T2, MHCI-related protein 1 (MR1) with β2m, loaded with 5-(2-oxopropylideneamino)-6-d-ribitylaminouracil (human, UniProt Q95460 23-302; P61769 21-119, biotin on the Avi-tag (BirA ligase)); test: as above
T2 construct: MR1 heavy chain, human; beta-2 microglobulin; Small-molecule cargo: 5-OP-RU; Same protein chains as Dm12 and Dm13; they differ in the cargo only; also called MR1-5OPRU; not shown: Avi-tag, C-terminal, kept

[6] = biological target: T3, MHCI-related protein 1 (MR1) with β2m, loaded with 6-formylpterin (human, UniProt Q95460 23-302; P61769 21-119, biotin on the Avi-tag (BirA ligase)); test: as above
T3 construct: MR1 heavy chain, human; beta-2 microglobulin; Small-molecule cargo: 6-formylpterin; Same protein chains as Dm11 and Dm13; they differ in the cargo only; also called MR1-6FP; not shown: Avi-tag, C-terminal, kept

[7] = biological target: HLA-A*03:01 with peptide … (human | , biotin on the Avi-tag (BirA ligase)); test: as above
[8] = biological target: HLA-A*02:01 peptide-MHC class I (biotinylated pMHCI) (human | , biotin on the Avi-tag (BirA ligase)); test: SPR; biotinylated ligands (pMHCI, MR1, CD1) captured on streptavidin coupled to a CM5 chip; serial dilution of each CD8-Fc fusion injected; steady-state responses, 1:1 Langmuir fit; BIAcore T200, 25°C, PBS with 0.005% Tween 20
[9] = biological target: T4, MHCI-related protein 1 (MR1) with β-2 microglobulin, biotinylated, loaded with model ligands (human | , UniProt Q95460 23-292; P61769 21-119, biotin on the Avi-tag (BirA ligase)); test: as above
T4 construct: MR1 heavy chain, human; β-2 microglobulin; Small-molecule cargoes: 5-(2-oxopropylideneamino)-6-d-ribitylaminouracil, 6-formylpterin, 5-formyl salicylic acid; not shown: Avi-tag, C-terminal, kept

[10] = biological target: HLA-A*01:01 peptide-MHC class I (biotinylated pMHCI) (human | , biotin on the Avi-tag (BirA ligase)); test: as above

B1: soluble human CD8αβ-Fc heterodimer (Fc fusion)
chain 1: not shown
chain 2: LQQTPAYIKVQTNKMVMLSCEAKISLSNMRIYWLRQRQAPSSDSHHEFLALWDSAKGTIHGEEVEQEKIAVFRDASRFILNLTSVKPEDSGIYFCMIVGSPELTFGKGTQLSVVDFLPTTAQPTKKSTLKKRVCRLPRPETQKGPLCSP
notes: CD8 alpha extracellular domain, human, Uniprot P01732, residues 22-182; CD8 beta extracellular domain, human, Uniprot P10966, residues 22-170; Cloned in pFUSE-hIgG1e3 behind a mouse kappa light-chain secretion signal; source: ExpiCHO, purified (protein A, gel filtration); copies: 1 + 1
In the case of B1, the Kd [1] is reported as 238 µM, the Kd [2] is reported as 267 µM and 285 µM and the Kd [3] is reported as 101 µM. For the same binder, the Kd [4] was 255 µM and 244 µM, the Kd [5] was 228 µM and 233 µM and the Kd [6] was 250 µM and 220 µM. The Kd [7] was 147 µM.

B2: soluble human CD8αβ-Fc heterodimer (Fc fusion)
chain 1: not shown
chain 2: LQQTPAYIKVQTNKMVMLSCEAKISLSNMRIYWLRQRQAPSSDSHHEFLALWDSAKGTIHGEEVEQEKIAVFRDASRFILNLTSVKPEDSGIYFCMIVGSPELTFGKGTQLSVVDFLPTTAQPTKKSTLKKRVCRLPRPETQKGPLCSP
notes: CD8α extracellular domain, human, Uniprot P01732, residues 22-182; CD8β extracellular domain, human, Uniprot P10966, residues 22-170; Cloned into pFUSE-hIgG1e3 downstream of a mouse kappa light-chain secretion signal, subcloned into pcDNA3.1; source: ExpiCHO, purified (protein A, gel filtration on Superdex 200); copies: 1 + 1
B2 was tested, and the Kd [8] was 189 µM and ~230 µM, the Kd [9] was ~250 µM and the Kd [10] was 107 µM.

Source: paper PMC11739670 (European Journal of Immunology, 2024)
